Protein production data for eleven sequences are collected here from a protein production outcome set (Wang et al. 2014).

The nature of this series: label from the status in PepcDB records.
“MQRTAVLPYVQLLKPITWFAPMWAFGCGLISSGLPVWDRWPVIALGVLLCGPLVCGTSQAVNDWFDRHVDAINEPDRPIPSGRIPGRVGLYIAIGWTVLSLAVAWVLGPWVFGAAIFGLALAWAYSAPPFRLKGNGWWGNSAVGLCYEGLPWFTGAAVIAGALPDTRIVLLAVLYSIGAHGIMTLNDFKAVEGDIRMGVRSLPVQLGVAPAARLACAVMAVPQMVVIGLVASWDRPYHAGAVGLLLLAQFVLMARLLKRPRELAPWYNATGTTLYVIGMMVSAFALAPLIGAVELAPLIGAAP”: the protein production result is reported as “failed”.

Regarding “MQSDKVLNLPAGYFGIVLGTIGMGFAWRYASQVWQVSHWLGDGLVILAMIIWGLLTSAFIARLIRFPHSVLAEVRHPVLSSFVSLFPATTMLVAIGFVPWFRPLAVCLFSFGVVVQLAYAAWQTAGLWRGSHPEEATTPGLYLPTVANNFISAMACGALGYTDAGLVFLGAGVFSWLSLEPVILQRLRSSGELPTALRTSLGIQLAPALVACSAWLSVNGGEGDTLAKMLFGYGLLQLLFMLRLMPWYLSQPFNASFWSFSFGVSALATTGLHLGSGSDNGFFHTLAVPLFIFTNFIIAILLIRTFALLMQGKLLVRTERAVLMKAEDKE”, the protein production result is reported as “not failed”. As for “MQSGDGRRGRLRIFFGFAAGVGKTYGMLTEAHELLMMGKHVVVGYIEPHDRPDTNRLLEGLPQIPPKNIFYKQMVLTEPDIDQIIQQKPEIVLIDELAHSNAEGSRNRKRYQDIDELLNAGIDVFTTVNVQHIESLNDIVEEVTGIEVKETVPDTFLRQATIRVIDVEPDELIERLEQGKIYANENAKRALKNFFIPQKLDQLRGLAIQRASDHINRISGKTIGIQSKLLTVVNDAFPKMTEKCIRWTARLAQGLVVDWTVIQVRTQENTPTNIPLADKLGAEVISIEEDDSFETIVEFAKMTGVTDIIMGKNLRQPWYEKIFIEAFDDRLLKRLKDTELHLIPFNEEKRSLFFKTRKVIEGGGKDLVIAIGGVFLATVVTELMQYIHVGDQNLMLIYISFVLLVARTTSGYFWSSLSSILSVLSFNWFFVEPLYSLTVYKQGYPFTLLLMLVVALMSSNLMIRLKKQADTSMKKEHQMEILYELNKRYVLVESRKQILDISATYLSRLLEREVIIFDRQVKTESVHCINEKKSILNNEDEAAVAFWAAKNQKEAGNGTDTLNGAKGFYLPIAAGRKTLAVLGIERNADLDLENDQLNYLKLVLTQIAVILEQTELKDEKEQVELENEREKVRSNLLRAVSHDLRTPLTVISGIAETLGIGNDLKEETQRKLLKDIQEESQWLIRMVENLLSITRINMDTMKVNKTAEPVEEVIEAVYKHLRKVYPDGQVDIHLPEEVIFIQADPILIEQALFNLIENAFRHGENDLPVKLNVYQEKEQTVFEIENHGEIPLKQFQKIQSNLSGTNEVPVDSKNGLGIGLSIVKTIVHAHNGKMEMTIGRGKTLVRIYLK”, the protein production entry is on record as “failed”. For “MQSKGATGSKSEQRTGLLNGVAAYGMWGLVPLYWPLLKPAGAVEILAHRMVWSLALVAVALLVMRRWAWAGELLRQPRKLALVTVAAAVITVNWGVYIWAVNAGHVVEASLGYFINPLVTIALGVLILKERMRPWQWAAVGVAFTAVVVLTVGYGQPPWISLCLAFSFGTYGLVKKKVNLGGIESLAAETAIQFLPALAYLLWLTASGGSTFGTQGGAGHAALLASTGVVTAIPLVCFGAAAIRVPLSTLGLLQYLAPVFQFLLGILYFHEAMPPERWAGFALVWLALSLLTWDALRAAHRASRALRTAPSRIVADEQITPVYEHP”, the protein production result is on record as “failed”. Regarding “MQSSSSLAPVAPIIFLAIAIAAINWIDLARGKNRTSVAYPLSLLTTLVLTAWFGIDAAGGETHYAFANLVVIDPMANVLAAFCSLGMLLTLIYTRSYLAERDMFAGEFYMLALFTLGGQIVMITGNNFLTLYLGLELLSLSSYALVALRRDSRVTSESAIKYFVLGALASGFLLYGMSMMYGATGSLNLGEVFRVVESGRVNTTMLAFGVVFIVAGVAFKLGAAPFHMWIPDIYQGSPTAVTLLIAAGPKVAAFALIIRLLVEGLLPLATDWQVMLVILSIASLVIGNLTAIVQTNLKRMLAYSTISHMGFVLLGMLSGVVANKADGAVNAYSSSMFYSITYMLTTLGTFGLILVRTRKGFEAETLDDLKGMSRRHPWFAFLMLVMMFSMAGIPPTVGFYAKLSVLQAVVSAGMSWLAVLAVVFSLIGAFYYLRIVKLMYFDAPVGEEPLEASTGLRSVLSLNGLAVILLGLFPAGLMDLCFQAIRATLAS”, the protein production result was “failed”. As to “MQSTAFSLYIIDTLHDSLIFATILMSALLPKIILGPLGGVFVDWFDRKKFLVVIDLISGVLLLISALVYGNNLSLPIIYFICISLGIMNSVDEPLVVALIPSLVEKEKLVTANSINMFSTALGNIIGPILGAVVYSSFGIDTILYINASSFIIGAILEFMINIENKKKISQSKTIFNFLEDFKAGLIYIVRNRIILVIVVSIFFQNFFFNGATTVGVPFLAKQILKVSNAEFAILETTLIVGSIFGLLVASNLIKDKPLASLFPKLLFVISVCFLMIGLICIFLLKKQLMAYVFIAIIYICLGMLSMNVNVLFQTEMQKIVDESMFGRVSSLILSLIMSSIPLGQLVYGYLFKVVSPSIPFLVTFIAICCVSTLFSLSLRNSEL”, the protein production entry is given as “failed”. As for “MQSTIVIVNLLGAVALLLFGLAQVKDGVTRAFGMKLRSVLATGTQNGPRSFFSGFFATVALQSSTATALTVASFAERDLIKPRMAQVVLLGANVGTAVTAWIVAAGVEWLSPLLILAGIILKKGSSNARQGGGTAVIGIGLMLLSLHLLSGATEPMRASPALGVFIGLLDGAWPVALIFSAVLAFVSSSSLAVVVLILSLTATGTLSTGLIIVLILGANLGGAIPPVIATLSGPASARRITIGNLVVRTIGCLIAMPLASYGATYLQQLPLSPAKLPVDAHLIFNLILATLAWPFSGLISDLMAKLVPGDPKAEDGPNFLDQQALDVPVVALANATREVLSVGDSIERMLIRAENAFKHNDLAPLQEVALLEKKVDRRQQEVKVYLSQLGRKGLTDEEARRSIAIIDYAINLEHIGDIIEKGICEQIRKKVLNSFKFSDDGYEELKTLFDMTIENLRAAQSILVTGDFELARRLMESKVDIRRLEKQSSNRHLERLRDGLAESMQTSSLHLDMLRDLKRINAHIVTVAHPILDESGVLIESRLRYAEPRA”, the protein production entry is “failed”.

Turning to “MQTASRAHADSRHGLFLILFSAMLWGTVGITTKALYGLADTTPLSIGFFRLALAVPVLVAACRLATGPAMFRVARRDLGTMIVVGAMTALYQVCYFAAIRQIGVAAATLVTLCTAPVIVALLSAILTGERPSGRVLLSLACALAGTALLVGLRPLAGEGGNIPLGIAQALGSAFSYASVTVASRTLAGRYHPLQPVAIGFAAGALFLLPTALADGLVLTYPAAGWVLLLYLGVVPTALAYALFLAGMRTTTATAASICTLLEPLVSTVLAWLIFGERLGPLGAVGAVLLFGAIGLLARPVRRRQSSAA”, the protein production entry is “failed”.

In the case of “MQTFVLATNSETVSQTLCSYLEGVLDLEDSVYAVNSQPGGDRTPPDAVADGKAALEVVSDRLGDQVSVETYQIIRGNSPADDIFDIAAEVDADELVIGVRKRSQTDRLIFGSVAQDIMRQSDYPMRVVPRD”, the protein production entry is “failed”. Turning to “MQTIIRVEKLAKTFNQHQALHAVDLNIHHGEMVALLGPSGSGKSTLLRHLSGLITGDKSVGSHIELLGRTVQREGRLARDIRKSRAHTGYIFQQFNLVNRLSVLENVLIGALGSTPFWRTCFSWFTGEQKQRALQALTRVGMVHFAHQRVSTLSGGQQQRVAIARALMQQAKVILADEPIASLDPESARIVMDTLRDINQNDGITVVVTLHQVDYALRYCERIVALRQGHVFYDGSSQQFDNERFDHLYRSINRVEENAKAA”, the protein production result is given as “failed”. As to “MQTLLPLLARGAVLSPFKRPRPDAAFPHSRLVLSGVRIDLARLAAYERACGFPTGADALPLTYPHVLGFPLAMRIMASRAFPLPLLGLVHTSIEVTRLREPAATGEYELAVHVEGLTPHRRGTEATVVTGARVDGSLVWESRSTYLARHRRATDARTPADARTATDARTPADARTATDARTAADARTAAPVPSAEPKPLPVVAEWRLAADVGRRYAAVSGDRNPIHLHPLTARLFGFPRAIAHGMWTVARCLAEQPADASVQLRAEFKSPVLLPGTVTYAADGGRFELRGGERVHLTGELREYRANSA”, the protein production result is listed as “failed”.
